Measured values reported in patent US20240317859A1 (published 2024).

What was measured:
[1] = molecular target: T1, FcγRIIB/C (CD32b/c) (FcγRIIB) (R&D Systems) (UniProt P31994 46-217); experiment: SPR
T1 chain: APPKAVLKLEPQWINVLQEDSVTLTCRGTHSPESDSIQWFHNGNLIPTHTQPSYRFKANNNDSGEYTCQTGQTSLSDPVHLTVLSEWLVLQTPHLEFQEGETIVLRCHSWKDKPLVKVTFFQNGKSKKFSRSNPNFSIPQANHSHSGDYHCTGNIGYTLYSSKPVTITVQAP

[2] = molecular target: Fc gamma RIIIA/CD16a, CF (FcγRIIIA(V158)) (R&D Systems); experiment: SPR
Chain of Fc gamma RIIIA/CD16a, CF (FcγRIIIA(V158)) (R&D Systems) (chain, as listed by the source): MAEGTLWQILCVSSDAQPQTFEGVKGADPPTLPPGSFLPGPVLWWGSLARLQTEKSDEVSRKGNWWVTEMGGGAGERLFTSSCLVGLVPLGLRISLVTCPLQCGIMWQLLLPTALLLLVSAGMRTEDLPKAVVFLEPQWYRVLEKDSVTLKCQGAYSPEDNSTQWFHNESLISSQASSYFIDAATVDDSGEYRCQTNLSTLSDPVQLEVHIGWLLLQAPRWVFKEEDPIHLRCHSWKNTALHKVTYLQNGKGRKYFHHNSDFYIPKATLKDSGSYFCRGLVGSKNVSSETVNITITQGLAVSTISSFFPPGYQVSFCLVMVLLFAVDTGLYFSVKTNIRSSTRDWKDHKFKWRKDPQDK

B1: X3-KL HM268-K8 (antibody)
chain 1: QVQLVQSGPEVKKPGASVKVVCKTSGYTFTSYYIQWLKQRPGQGLEWIGWIYFGDASTKYNEKFKGRVTMTADKSTSTAYMELRSLRSDDTAVYYCASYYGSYFDYWGQGTTVTVSSASTKGPSVFPLAPSSKSTSGGTAALGCLVKDYFPEPVTVSWNSGALTSGVHTFPAVLQSSGLYSLSSVVTVPSSSLGTQTYICNVNHKPSNTKVDKKVEPKSCDKTHTCPPCPAPELLGGPDVFLFPPKPKDTLMISRTPEVTCVVVDVSDEDPEVKFNWYVDGVEVHNAKTKPREEQYNSTYRVVSVLTVLHQDWLNGKEYKCAVSNKAYPAPIEKTISKAKGQPREPQVYTLPPSRDELTKNQVSLTCLVKGFYPSDIAVEWESNGQPENNYKTTPPVLDSDGSFFLYSKLTVDKSRWQQGNVFSCSVMHEALHNHYTQKSLSLSPGK
chain 2: DIQMTQSPSSLSASVGDRVTITCRASQDISNYLNWYQQKPDGTVKLLIYSTSRLHSGVPSRFSGSGSGTDYTLTISSLQPEDFATYYCQQGSTLPFTFGQGTKLEIKRTVAAPSVFIFPPSDEQLKSGTASVVCLLNNFYPREAKVQWKVDNALQSGNSQESVTEQDSKDSTYSLSSTLTLSKADYEKHKVYACEVTHQGLSSPVTKSFNRGEC
Which Kd [1] does the source give for B1 here?
The Kd was 736 nM.

What about the Kd [2] of the same binder?
Its Kd is 1250 nM.

B2: X3-KS-DF HM268-K8 (antibody)
chain 1: QVQLVQSGPEVKKPGASVKVVCKTSGYTFTSYYIQWLKQRPGQGLEWIGWIYFGDASTKYNEKFKGRVTMTADKSTSTAYMELRSLRSDDTAVYYCASYYGSYFDYWGQGTTVTVSSASTKGPSVFPLAPSSKSTSGGTAALGCLVKDYFPEPVTVSWNSGALTSGVHTFPAVLQSSGLYSLSSVVTVPSSSLGTQTYICNVNHKPSNTKVDKKVEPKSCDKTHTCPPCPAPELLGGPDVFLFPPKPKDTLMISRTPEVTCVVVDVGDEDPEVKFNWYVDGVEVHNAKTKPREEQYNSTYRVVSVLTVLHQDWLNGKEYKCAVSNKALPAPIEKTISKAKGQPREPQVYTLPPSRDELTKNQVSLTCLVKGFYPSDIAVEWESNGQPENNYKTTPPVLDSDGSFFLYSKLTVDKSRWQQGNVFSCSVMHEALHNHYTQKSLSLSPGK
chain 2: DIQMTQSPSSLSASVGDRVTITCRASQDISNYLNWYQQKPDGTVKLLIYSTSRLHSGVPSRFSGSGSGTDYTLTISSLQPEDFATYYCQQGSTLPFTFGQGTKLEIKRTVAAPSVFIFPPSDEQLKSGTASVVCLLNNFYPREAKVQWKVDNALQSGNSQESVTEQDSKDSTYSLSSTLTLSKADYEKHKVYACEVTHQGLSSPVTKSFNRGEC
B2 was tested. Which Kd [1] did it give?
Its Kd is 2200 nM.

B3: X3-KE HM268-K8 (antibody)
chain 1: QVQLVQSGPEVKKPGASVKVVCKTSGYTFTSYYIQWLKQRPGQGLEWIGWIYFGDASTKYNEKFKGRVTMTADKSTSTAYMELRSLRSDDTAVYYCASYYGSYFDYWGQGTTVTVSSASTKGPSVFPLAPSSKSTSGGTAALGCLVKDYFPEPVTVSWNSGALTSGVHTFPAVLQSSGLYSLSSVVTVPSSSLGTQTYICNVNHKPSNTKVDKKVEPKSCDKTHTCPPCPAPELLGGPDVFLFPPKPKDTLMISRTPEVTCVVVDVSDEDPEVKFNWYVDGVEVHNAKTKPRAEQYNSTYRVVSVLTVLHQDWLNGKEYKCAVSNKALPAPIEKTISKAKGQPREPQVYTLPPSRDELTKNQVSLTCLVKGFYPSDIAVEWESNGQPENNYKTTPPVLDSDGSFFLYSKLTVDKSRWQQGNVFSCSVMHEALHNHYTQKSLSLSPGK
chain 2: DIQMTQSPSSLSASVGDRVTITCRASQDISNYLNWYQQKPDGTVKLLIYSTSRLHSGVPSRFSGSGSGTDYTLTISSLQPEDFATYYCQQGSTLPFTFGQGTKLEIKRTVAAPSVFIFPPSDEQLKSGTASVVCLLNNFYPREAKVQWKVDNALQSGNSQESVTEQDSKDSTYSLSSTLTLSKADYEKHKVYACEVTHQGLSSPVTKSFNRGEC
Which results are given for B3?
Kd [1]: 1110 nM; Kd [2]: 305 nM

B4: X3-KSI HM268-K8 (antibody)
chain 1: QVQLVQSGPEVKKPGASVKVVCKTSGYTFTSYYIQWLKQRPGQGLEWIGWIYFGDASTKYNEKFKGRVTMTADKSTSTAYMELRSLRSDDTAVYYCASYYGSYFDYWGQGTTVTVSSASTKGPSVFPLAPSSKSTSGGTAALGCLVKDYFPEPVTVSWNSGALTSGVHTFPAVLQSSGLYSLSSVVTVPSSSLGTQTYICNVNHKPSNTKVDKKVEPKSCDKTHTCPPCPAPELLGGPDVFLFPPKPKDTLMISRTPEVTCVVVDVGDEDPEVKFNWYVDGVEVHNAKTKPREEQYNSTYRVVSVLTVLHQDWLNGKEYKCAVSNKALPAPEEKTISKAKGQPREPQVYTLPPSRDELTKNQVSLTCLVKGFYPSDIAVEWESNGQPENNYKTTPPVLDSDGSFFLYSKLTVDKSRWQQGNVFSCSVMHEALHNHYTQKSLSLSPGK
chain 2: DIQMTQSPSSLSASVGDRVTITCRASQDISNYLNWYQQKPDGTVKLLIYSTSRLHSGVPSRFSGSGSGTDYTLTISSLQPEDFATYYCQQGSTLPFTFGQGTKLEIKRTVAAPSVFIFPPSDEQLKSGTASVVCLLNNFYPREAKVQWKVDNALQSGNSQESVTEQDSKDSTYSLSSTLTLSKADYEKHKVYACEVTHQGLSSPVTKSFNRGEC
Which Kd [1] does the source give for B4 here?
Its Kd is 1640 nM.

And the Kd [2]?
The Kd was 265 nM.

B5: X3-K HM268-K8 (antibody)
chain 1: QVQLVQSGPEVKKPGASVKVVCKTSGYTFTSYYIQWLKQRPGQGLEWIGWIYFGDASTKYNEKFKGRVTMTADKSTSTAYMELRSLRSDDTAVYYCASYYGSYFDYWGQGTTVTVSSASTKGPSVFPLAPSSKSTSGGTAALGCLVKDYFPEPVTVSWNSGALTSGVHTFPAVLQSSGLYSLSSVVTVPSSSLGTQTYICNVNHKPSNTKVDKKVEPKSCDKTHTCPPCPAPELLGGPDVFLFPPKPKDTLMISRTPEVTCVVVDVSDEDPEVKFNWYVDGVEVHNAKTKPREEQYNSTYRVVSVLTVLHQDWLNGKEYKCAVSNKALPAPIEKTISKAKGQPREPQVYTLPPSRDELTKNQVSLTCLVKGFYPSDIAVEWESNGQPENNYKTTPPVLDSDGSFFLYSKLTVDKSRWQQGNVFSCSVMHEALHNHYTQKSLSLSPGK
chain 2: DIQMTQSPSSLSASVGDRVTITCRASQDISNYLNWYQQKPDGTVKLLIYSTSRLHSGVPSRFSGSGSGTDYTLTISSLQPEDFATYYCQQGSTLPFTFGQGTKLEIKRTVAAPSVFIFPPSDEQLKSGTASVVCLLNNFYPREAKVQWKVDNALQSGNSQESVTEQDSKDSTYSLSSTLTLSKADYEKHKVYACEVTHQGLSSPVTKSFNRGEC
Which Kd [1] does the source give for B5 here?
The Kd was 1380 nM.

What about the Kd [2] of the same binder?
Its Kd is 370 nM.

B6: X3-KI HM268-K8 (antibody)
chain 1: QVQLVQSGPEVKKPGASVKVVCKTSGYTFTSYYIQWLKQRPGQGLEWIGWIYFGDASTKYNEKFKGRVTMTADKSTSTAYMELRSLRSDDTAVYYCASYYGSYFDYWGQGTTVTVSSASTKGPSVFPLAPSSKSTSGGTAALGCLVKDYFPEPVTVSWNSGALTSGVHTFPAVLQSSGLYSLSSVVTVPSSSLGTQTYICNVNHKPSNTKVDKKVEPKSCDKTHTCPPCPAPELLGGPDVFLFPPKPKDTLMISRTPEVTCVVVDVSDEDPEVKFNWYVDGVEVHNAKTKPREEQYNSTYRVVSVLTVLHQDWLNGKEYKCAVSNKALPAPEEKTISKAKGQPREPQVYTLPPSRDELTKNQVSLTCLVKGFYPSDIAVEWESNGQPENNYKTTPPVLDSDGSFFLYSKLTVDKSRWQQGNVFSCSVMHEALHNHYTQKSLSLSPGK
chain 2: DIQMTQSPSSLSASVGDRVTITCRASQDISNYLNWYQQKPDGTVKLLIYSTSRLHSGVPSRFSGSGSGTDYTLTISSLQPEDFATYYCQQGSTLPFTFGQGTKLEIKRTVAAPSVFIFPPSDEQLKSGTASVVCLLNNFYPREAKVQWKVDNALQSGNSQESVTEQDSKDSTYSLSSTLTLSKADYEKHKVYACEVTHQGLSSPVTKSFNRGEC
Which results are given for B6?
Kd [1]: 689 nM; Kd [2]: 162 nM

B7: X3-KSL HM268-K8 (antibody)
chain 1: QVQLVQSGPEVKKPGASVKVVCKTSGYTFTSYYIQWLKQRPGQGLEWIGWIYFGDASTKYNEKFKGRVTMTADKSTSTAYMELRSLRSDDTAVYYCASYYGSYFDYWGQGTTVTVSSASTKGPSVFPLAPSSKSTSGGTAALGCLVKDYFPEPVTVSWNSGALTSGVHTFPAVLQSSGLYSLSSVVTVPSSSLGTQTYICNVNHKPSNTKVDKKVEPKSCDKTHTCPPCPAPELLGGPDVFLFPPKPKDTLMISRTPEVTCVVVDVGDEDPEVKFNWYVDGVEVHNAKTKPREEQYNSTYRVVSVLTVLHQDWLNGKEYKCAVSNKAYPAPIEKTISKAKGQPREPQVYTLPPSRDELTKNQVSLTCLVKGFYPSDIAVEWESNGQPENNYKTTPPVLDSDGSFFLYSKLTVDKSRWQQGNVFSCSVMHEALHNHYTQKSLSLSPGK
chain 2: DIQMTQSPSSLSASVGDRVTITCRASQDISNYLNWYQQKPDGTVKLLIYSTSRLHSGVPSRFSGSGSGTDYTLTISSLQPEDFATYYCQQGSTLPFTFGQGTKLEIKRTVAAPSVFIFPPSDEQLKSGTASVVCLLNNFYPREAKVQWKVDNALQSGNSQESVTEQDSKDSTYSLSSTLTLSKADYEKHKVYACEVTHQGLSSPVTKSFNRGEC
Which results are given for B7?
Kd [1]: 1240 nM; Kd [2]: 3460 nM

B8: X4-KS HM268-K8 (antibody)
chain 1: QVQLVQSGPEVKKPGASVKVVCKTSGYTFTSYYIQWLKQRPGQGLEWIGWIYFGDASTKYNEKFKGRVTMTADKSTSTAYMELRSLRSDDTAVYYCASYYGSYFDYWGQGTTVTVSSASTKGPSVFPLAPSSKSTSGGTAALGCLVKDYFPEPVTVSWNSGALTSGVHTFPAVLQSSGLYSLSSVVTVPSSSLGTQTYICNVNHKPSNTKVDKKVEPKSCDKTHTCPPCPAPELLGGPDVFLFPPKPKDTLMISRTPEVTCVVVDVGDEDPEVKFNWYVDGVEVHNAKTKPREEQYNSTYRVVSVLTVLHQDWLNGKEYKCAVSNKAYPAPEEKTISKAKGQPREPQVYTLPPSRDELTKNQVSLTCLVKGFYPSDIAVEWESNGQPENNYKTTPPVLDSDGSFFLYSKLTVDKSRWQQGNVFSCSVMHEALHNHYTQKSLSLSPGK
chain 2: DIQMTQSPSSLSASVGDRVTITCRASQDISNYLNWYQQKPDGTVKLLIYSTSRLHSGVPSRFSGSGSGTDYTLTISSLQPEDFATYYCQQGSTLPFTFGQGTKLEIKRTVAAPSVFIFPPSDEQLKSGTASVVCLLNNFYPREAKVQWKVDNALQSGNSQESVTEQDSKDSTYSLSSTLTLSKADYEKHKVYACEVTHQGLSSPVTKSFNRGEC
Which Kd [1] does the source give for B8 here?
Its Kd is 2550 nM.

What about the Kd [2] of the same binder?
The Kd was 881 nM.
